This sample holds only a part of the variants without activity.
Experiments:
[1] = test system: biotinyl-Leu-oxazolone; experiment: self-aminoacylation, catalytic enhancement (BLO) (fold over background); higher = more active; k-Seq, kA / k0A0; sequences stand for … in GGGAAUGGAUCCACAUCUACGAAUUC…UUCACUGCAGACUUGACGAAGCUG
Method in brief: (§1)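 Mutagenized RNA pools with a 21-nt variable region (0.43 μM) reacted with each biotinyl-aminoacyl-oxazolone at 2–1250 μM. Reactions ran in 50 μL HEPES/NaCl/KCl/MgCl2/CaCl2 buffer with 5% acetonitrile, pH 6.9–7.0, for 90 minutes at room temperature. Streptavidin-captured RNA was quantified by triplicate qPCR and Illumina sequencing, and per-sequence fraction reacted was fit to a pseudo-first-order model with 1000 bootstraps. Catalytic enhancement is median kA divided by the uncatalyzed rate, the low-activity peak of a bimodal Gaussian fit.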

[2] = test system: biotinyl-Met-oxazolone; experiment: self-aminoacylation, catalytic enhancement (BMO) (fold over background); higher = more active; k-Seq, kA / k0A0; sequences stand for … in GGGAAUGGAUCCACAUCUACGAAUUC…UUCACUGCAGACUUGACGAAGCUG
Method in brief: as §1

[3] = test system: biotinyl-Trp-oxazolone; experiment: self-aminoacylation, catalytic enhancement (BWO) (fold over background); higher = more active; k-Seq, kA / k0A0; sequences stand for … in GGGAAUGGAUCCACAUCUACGAAUUC…UUCACUGCAGACUUGACGAAGCUG
Method in brief: as §1

[4] = test system: biotinyl-Val-oxazolone; experiment: self-aminoacylation, catalytic enhancement (BVO) (fold over background); higher = more active; k-Seq, kA / k0A0; sequences stand for … in GGGAAUGGAUCCACAUCUACGAAUUC…UUCACUGCAGACUUGACGAAGCUG
Method in brief: as §1

[5] = test system: biotinyl-Phe-oxazolone; experiment: self-aminoacylation, catalytic enhancement (BFO) (fold over background); higher = more active; k-Seq, kA / k0A0; sequences stand for … in GGGAAUGGAUCCACAUCUACGAAUUC…UUCACUGCAGACUUGACGAAGCUG
Method in brief: as §1

[6] = test system: biotinyl-Ile-oxazolone; experiment: self-aminoacylation, catalytic enhancement (BIO) (fold over background); higher = more active; k-Seq, kA / k0A0; sequences stand for … in GGGAAUGGAUCCACAUCUACGAAUUC…UUCACUGCAGACUUGACGAAGCUG
Method in brief: as §1

Sequence | self-aminoacylation [1] | self-aminoacylation [2] | self-aminoacylation [3] | self-aminoacylation [4] | self-aminoacylation [5] | self-aminoacylation [6]
AGUAACCUGGUCAUCGAGUGA [Fam2.1 aminoacylation ribozyme variant] | 5.02 | 5.06 | 4.62 | 3.25 | 16.8 | 3.32
AGUACCUUGGUCAUCGAGUGA [Fam2.1 aminoacylation ribozyme variant] | 6.37 | 6.27 | 8.17 | 4.07 | 19 | 4.3
CUACUUGAAACAAUCGGGCUG [Fam1A.1 aminoacylation ribozyme variant] | 1.83 | 1.95 | 2.37 | 1.93 | 1.26 | 1.51
AAGUUUGCUGAUAGUCGCCAG [Fam3.1 aminoacylation ribozyme variant] | 2.22 | 1.41 | 1.44 | 1.53 | 4.26 | 1.38
AUUACCCUGGUCAUGGAGUGC [Fam2.1 aminoacylation ribozyme variant] | 1.24 | 0.858 | 0.556 | 1.17 | 0.89 | 1.05
AUUAUCCUGGUCAUCGAGUGC [Fam2.1 aminoacylation ribozyme variant] | 2.16 | 1.77 | 0.981 | 1.25 | 1.72 | 1.29
AUUCACCUAGGUGAUCGGGUU [Fam2.2 aminoacylation ribozyme variant] | 2.59 | 1.89 | 1.06 | 1.88 | 9.06 | 1.85
AGUACCCUGCUCAUCGAGUGA [Fam2.1 aminoacylation ribozyme variant] | 1.77 | 2.06 | 1.88 | 1.28 | 1.88 | 1.2
AUUACCCUGGGCAUCGGGUGA [Fam2.1 aminoacylation ribozyme variant] | 11.5 | 10.4 | 10.8 | 6.68 | 65.7 | 5.62
CCACAGUUCAAGCCAUCGGUC [Fam1B.1 aminoacylation ribozyme variant] | 2.53 | 2.33 | 1.3 | 2.17 | 1.14 | 1.87
AUUCACCUAGGUCCUCGGGUU [Fam2.2 aminoacylation ribozyme variant] | 2.45 | 2.22 | 2.48 | 2.06 | 8.53 | 1.8
AUUACCCAGGUUAUCGAGUGA [Fam2.1 aminoacylation ribozyme variant] | 9.68 | 9.6 | 11.6 | 4.25 | 50.4 | 3.94
AAGAUUGCAAAUAGUCGCAAG [Fam3.1 aminoacylation ribozyme variant] | 1.58 | 1.27 | 2.48 | 1.29 | 1.38 | 1.43
AUAACCCUGGUCAGCGAGUGA [Fam2.1 aminoacylation ribozyme variant] | 5.25 | 4.66 | 6.19 | 2.92 | 25.1 | 3.52
CCACACUUCAAGCAGUCUGUC [Fam1B.1 aminoacylation ribozyme variant] | 0.353 | 0.383 | 0.305 | 0.478 | 0.562 | 0.339
CCAUACUUCAAGCAAUCGGUC [Fam1B.1 aminoacylation ribozyme variant] | 1.14 | 0.921 | 10.1 | 1.11 | 22.5 | 1.07
AGGAUUGCUAAUAGUCGCAAG [Fam3.1 aminoacylation ribozyme variant] | 1.66 | 1.52 | 2.52 | 1.88 | 2.92 | 1.62
AUUCACCUACCUCAUCGGGUG [Fam2.2 aminoacylation ribozyme variant] | 4.3 | 2.69 | 2.79 | 2.33 | 22.3 | 2.21
AAUCAUCUAGGUCAUCGGGUG [Fam2.2 aminoacylation ribozyme variant] | 5.48 | 5.64 | 7.01 | 4.6 | 41.3 | 4.54
ACCCACCUAGGUCAUCGGGUG [Fam2.2 aminoacylation ribozyme variant] | 5.88 | 5.93 | 6.03 | 5.64 | 54 | 5.07
AGGUUUGCUAAUAGUCGCGAG [Fam3.1 aminoacylation ribozyme variant] | 1.61 | 1.65 | 2.59 | 1.78 | 2.48 | 1.56
AUUCACCUAAGUCAUCGGUUG [Fam2.2 aminoacylation ribozyme variant] | 1.23 | 1.14 | 0.969 | 1.24 | 0.716 | 1.06
CUAUUUCAAACAAUCGGUGUG [Fam1A.1 aminoacylation ribozyme variant] | 0.992 | 1.01 | 0.757 | 0.83 | 0.988 | 0.727
CCACUCUUCAAGAAAUCGGUC [Fam1B.1 aminoacylation ribozyme variant] | 0.903 | 0.91 | 4.87 | 0.871 | 5.4 | 0.932
AUUCACCUAGGUGACCGGGUG [Fam2.2 aminoacylation ribozyme variant] | 5.29 | 3.84 | 6.82 | 4.19 | 23 | 4.8
CUACCUCAAACAAUCGGUCGG [Fam1A.1 aminoacylation ribozyme variant] | 1.55 | 1.5 | 1.78 | 1.25 | 1.56 | 1.28

Sequence | self-aminoacylation [1] | self-aminoacylation [2] | self-aminoacylation [3] | self-aminoacylation [4] | self-aminoacylation [5] | self-aminoacylation [6]
AUUACCCUGCUCAACGAGUGA [Fam2.1 aminoacylation ribozyme variant] | 5.59 | 5.64 | 6.69 | 3.25 | 24.7 | 2.33
AAGUGUGCUAAUAAUCGCAAG [Fam3.1 aminoacylation ribozyme variant] | 0.989 | 1.25 | 1.09 | 1.29 | 1.51 | 1.35
AGGACCCUGGUCAUCGAGUGA [Fam2.1 aminoacylation ribozyme variant] | 10.9 | 10.5 | 10.7 | 5.05 | 36.7 | 4.59
CCACACAUCAAGCAAUAGGUC [Fam1B.1 aminoacylation ribozyme variant] | 0.574 | 0.698 | 0.736 | 1.02 | 1.52 | 0.864
CUACCUCAAACAAUCGGACUG [Fam1A.1 aminoacylation ribozyme variant] | 0.614 | 0.915 | 1.05 | 0.833 | 1.27 | 0.872
CGACUUAAAACAAUCGGUCUG [Fam1A.1 aminoacylation ribozyme variant] | 1.26 | 1.48 | 1.06 | 1.17 | 1.15 | 1.33
AUUACCCUGCUCAUCGACUGA [Fam2.1 aminoacylation ribozyme variant] | 0.475 | 0.687 | 0.534 | 0.82 | 0.34 | 0.856
AUUCACCUAGAUCAACGGGUG [Fam2.2 aminoacylation ribozyme variant] | 5.41 | 4.52 | 4.38 | 2.49 | 25.3 | 2.73
GUUCACCUAGGUCACCGGGUG [Fam2.2 aminoacylation ribozyme variant] | 5.53 | 3.6 | 6.73 | 3.55 | 28.5 | 4.06
CCACACUUCAAGCAGUAGGUC [Fam1B.1 aminoacylation ribozyme variant] | 0.51 | 0.425 | 0.401 | 0.815 | 0.807 | 0.633
CCACACAUUAAGCAAUCGGUC [Fam1B.1 aminoacylation ribozyme variant] | 0.667 | 0.709 | 0.62 | 0.867 | 1 | 0.966
AAGUUUGCUAUUAGUCGCCAG [Fam3.1 aminoacylation ribozyme variant] | 1.12 | 0.864 | 0.849 | 0.818 | 0.947 | 1.01
CCGCACUUCAAUCAAUCGGUC [Fam1B.1 aminoacylation ribozyme variant] | 2.03 | 1.26 | 28.7 | 1.62 | 39.7 | 1.27
AUUCAUCUAGGUCAUCGGGGG [Fam2.2 aminoacylation ribozyme variant] | 2.31 | 2.13 | 2.14 | 1.9 | 5.32 | 1.82
CUAGUUCAAACAACCGGUCUG [Fam1A.1 aminoacylation ribozyme variant] | 0.965 | 1.05 | 0.982 | 1.2 | 0.987 | 1.23
AUUUACCUAGGUCAUCUGGUG [Fam2.2 aminoacylation ribozyme variant] | 3.75 | 2.73 | 3 | 1.95 | 16.8 | 2.15
AAGUUUGCUAAUAGACGCAUG [Fam3.1 aminoacylation ribozyme variant] | 0.553 | 0.48 | 0.703 | 0.59 | 0.785 | 0.645
CUACUCCAUACAAUCGGUCUG [Fam1A.1 aminoacylation ribozyme variant] | 0.628 | 0.719 | 0.549 | 0.751 | 0.859 | 0.833
UCGCACUUCAAGCAAUCGGUC [Fam1B.1 aminoacylation ribozyme variant] | 2.14 | 1.44 | 29.8 | 1.61 | 55.1 | 1.38
AGGUUUGCUAAUAGUCGCAGG [Fam3.1 aminoacylation ribozyme variant] | 1.7 | 2.21 | 1.99 | 1.52 | 4.15 | 1.97
AUUCCCCGGGUCAUCGAGUGA [Fam2.1 aminoacylation ribozyme variant] | 4.99 | 4.59 | 6.46 | 2.92 | 30 | 3.32
ACACACUUCAAGCAAUGGGUC [Fam1B.1 aminoacylation ribozyme variant] | 0.794 | 1.03 | 1.03 | 0.947 | 1.04 | 0.996
CCUCACUUCAAGCAAUCGGUG [Fam1B.1 aminoacylation ribozyme variant] | 9.05 | 6.58 | 6.88 | 4.01 | 25.3 | 4.12
CUAAUUCAAAGAAUCGGUCUG [Fam1A.1 aminoacylation ribozyme variant] | 0.806 | 0.742 | 0.78 | 0.842 | 0.767 | 0.805
CUACUGAAAACAAUCGGUCUG [Fam1A.1 aminoacylation ribozyme variant] | 0.708 | 0.735 | 0.78 | 0.706 | 0.542 | 0.84

From the supplement of paper PMC9233669
